Data: PMC6098011, “Insights into degradation mechanism of N-end rule substrates by p62/SQSTM1 autophagy adapter” (Nature Communications, 2018)

Experiments:
[1] = molecular target: MBP-PB1-ZZ D69A (human) (UniProt Q13501); assay: SPR; BIAcore 2000; MBP-PB1-ZZ WT or D69A immobilised on CM5; R-BiP N407 5-100 μM injected; 20 mM HEPES pH 7.5, 100 mM NaCl, 1 mM DTT
[2] = molecular target: MBP-fused PB1-ZZ of p62 (residues 1-181) wild type (human) (UniProt Q13501); assay: as above

“R-BiP N407 protein (from UniProt P11021 19-654) (domain or fragment)” gave a Kd [1] of 26.1 µM and a Kd [2] of 20.2 µM.
